Measurements as given in paper PMC2955838.

Experiments:
[1] = molecular target: vascular endothelial growth factor (VEGF) dimer (UniProt P15692); experiment: split reporter
Flt-1 (Homo sapiens) = Flt-1 (Homo sapiens) (UniProt P17948); conditions: cited from earlier work
Sequence of Flt-1 (Homo sapiens) (P17948 27-1338): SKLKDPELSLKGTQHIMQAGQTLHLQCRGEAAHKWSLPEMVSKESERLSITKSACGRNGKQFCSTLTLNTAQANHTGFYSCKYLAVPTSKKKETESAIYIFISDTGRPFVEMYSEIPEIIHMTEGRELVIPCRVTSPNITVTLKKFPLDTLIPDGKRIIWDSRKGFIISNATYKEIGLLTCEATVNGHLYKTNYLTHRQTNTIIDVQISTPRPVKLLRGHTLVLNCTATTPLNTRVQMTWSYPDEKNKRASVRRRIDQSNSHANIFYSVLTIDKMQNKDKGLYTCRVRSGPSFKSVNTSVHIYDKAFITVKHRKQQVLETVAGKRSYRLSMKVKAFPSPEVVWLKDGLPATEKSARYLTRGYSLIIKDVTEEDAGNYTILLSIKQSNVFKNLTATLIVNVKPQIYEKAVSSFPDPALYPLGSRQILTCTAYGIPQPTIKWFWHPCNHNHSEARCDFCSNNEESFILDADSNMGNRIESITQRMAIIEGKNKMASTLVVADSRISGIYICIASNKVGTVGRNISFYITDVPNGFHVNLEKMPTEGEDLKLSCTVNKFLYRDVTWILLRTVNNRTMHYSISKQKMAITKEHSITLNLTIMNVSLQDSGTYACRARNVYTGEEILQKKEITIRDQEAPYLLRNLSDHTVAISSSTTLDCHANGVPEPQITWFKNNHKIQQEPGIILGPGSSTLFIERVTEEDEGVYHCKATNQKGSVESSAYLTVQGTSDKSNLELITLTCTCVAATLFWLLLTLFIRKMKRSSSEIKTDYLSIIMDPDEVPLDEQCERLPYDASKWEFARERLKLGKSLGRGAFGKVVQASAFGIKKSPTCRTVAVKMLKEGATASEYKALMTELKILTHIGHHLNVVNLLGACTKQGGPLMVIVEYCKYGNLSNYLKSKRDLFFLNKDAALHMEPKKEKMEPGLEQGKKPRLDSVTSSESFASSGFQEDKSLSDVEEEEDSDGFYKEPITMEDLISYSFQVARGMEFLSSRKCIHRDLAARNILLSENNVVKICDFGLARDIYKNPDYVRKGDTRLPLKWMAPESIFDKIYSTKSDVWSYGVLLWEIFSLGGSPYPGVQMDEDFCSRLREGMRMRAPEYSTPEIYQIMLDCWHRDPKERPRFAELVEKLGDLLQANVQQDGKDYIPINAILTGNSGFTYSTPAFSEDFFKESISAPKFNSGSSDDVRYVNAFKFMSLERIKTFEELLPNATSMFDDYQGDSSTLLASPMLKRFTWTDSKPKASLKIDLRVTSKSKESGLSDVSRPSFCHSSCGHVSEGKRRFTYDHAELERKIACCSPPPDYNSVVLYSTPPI

Sequence of Flt-1 domain 2 fused to the N-terminal half of firefly luciferase (domain or fragment) (P17948 27-1338): as above
Sequence of Flt-1 domain 2 fused to the C-terminal half of firefly luciferase (domain or fragment) (P17948 27-1338): as above
Sequence of VEGF (P15692 whole entry): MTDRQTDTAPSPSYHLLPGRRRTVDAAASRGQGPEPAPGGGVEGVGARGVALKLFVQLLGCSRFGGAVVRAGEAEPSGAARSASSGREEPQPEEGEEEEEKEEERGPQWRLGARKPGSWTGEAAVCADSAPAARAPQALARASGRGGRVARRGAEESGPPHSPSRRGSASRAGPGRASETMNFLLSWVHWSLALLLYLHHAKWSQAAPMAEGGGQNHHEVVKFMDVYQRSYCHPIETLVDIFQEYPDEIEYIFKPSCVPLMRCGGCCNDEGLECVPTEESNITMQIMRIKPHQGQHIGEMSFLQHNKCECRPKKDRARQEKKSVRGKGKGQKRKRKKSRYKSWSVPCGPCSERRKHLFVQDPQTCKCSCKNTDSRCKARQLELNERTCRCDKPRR

| fold increase in luminescence [1] | Substance | Kd (Flt-1 (Homo sapiens)) |
| --- | --- | --- |
| > 13 fold | Flt-1 domain 2 fused to the C-terminal half of firefly luciferase (domain or fragment) | – |
| > 13 fold | Flt-1 domain 2 fused to the N-terminal half of firefly luciferase (domain or fragment) | – |
| – | VEGF (from UniProt P15692) | 1.4 nM |
